As usually defined, the stoichiometry N is a count of units in the complex or per binding partner.

The assay deals with Cat1-His6 (CRISPR-associated TIR protein 1, homolog MCI0612855.1). As to the kind of experiment: SEC-MALS; Cat1-His6 with NAD+ (1:10 molar ratio), no cA4; Superose 6 10/300 increase; 25 mM MES pH 6, 200 mM NaCl, 2 mM β-mercaptoethanol, 5 % glycerol.

Turning to “Cat1-His6 (CRISPR-associated TIR protein 1, homolog MCI0612855.1) (enzyme)”, the stoichiometry N amounted to 2.

For the origin of these results see paper PMC12162218.
